The values that follow come from patent US20210032298.

Data set [1] has as its target T1, Myc-tagged CMTM6 C90S mutant (expressed in HEK293 cells).
T1 chain: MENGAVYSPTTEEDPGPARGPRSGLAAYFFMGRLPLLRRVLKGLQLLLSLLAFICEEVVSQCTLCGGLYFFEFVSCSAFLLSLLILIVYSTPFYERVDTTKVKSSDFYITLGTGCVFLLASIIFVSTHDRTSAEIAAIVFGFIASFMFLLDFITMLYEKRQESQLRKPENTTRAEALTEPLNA

The target of data set [2] is T2, Myc-tagged CMTM6 C90S+C115S double mutant (expressed in HEK293 cells).
T2 chain: T1 chain with C115S

The target of data set [3] is T3, Myc-tagged CMTM6 C115S mutant (expressed in HEK293 cells).
T3 chain: T1 chain with S90C, C115S

Data set [4] has as its target T4, Myc-tagged CMTM6, wild type (expressed in HEK293 cells).
T4 chain: T1 chain with S90C

The target of data set [5] is T5, transmembrane protein 192 (TMEM192), Q8IY95.
T5 chain: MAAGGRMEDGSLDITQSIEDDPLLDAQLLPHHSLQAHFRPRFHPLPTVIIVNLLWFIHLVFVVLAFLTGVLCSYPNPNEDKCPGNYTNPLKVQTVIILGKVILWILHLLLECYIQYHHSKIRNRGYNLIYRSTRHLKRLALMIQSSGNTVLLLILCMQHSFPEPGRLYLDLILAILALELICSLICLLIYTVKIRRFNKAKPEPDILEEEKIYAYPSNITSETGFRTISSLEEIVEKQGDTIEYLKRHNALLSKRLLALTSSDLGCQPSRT

For data set [6], the target named is T6, Niemann-Pick C1 (NPC1; endogenous, in MDA-MB-231 cells), O15118.
T6 chain: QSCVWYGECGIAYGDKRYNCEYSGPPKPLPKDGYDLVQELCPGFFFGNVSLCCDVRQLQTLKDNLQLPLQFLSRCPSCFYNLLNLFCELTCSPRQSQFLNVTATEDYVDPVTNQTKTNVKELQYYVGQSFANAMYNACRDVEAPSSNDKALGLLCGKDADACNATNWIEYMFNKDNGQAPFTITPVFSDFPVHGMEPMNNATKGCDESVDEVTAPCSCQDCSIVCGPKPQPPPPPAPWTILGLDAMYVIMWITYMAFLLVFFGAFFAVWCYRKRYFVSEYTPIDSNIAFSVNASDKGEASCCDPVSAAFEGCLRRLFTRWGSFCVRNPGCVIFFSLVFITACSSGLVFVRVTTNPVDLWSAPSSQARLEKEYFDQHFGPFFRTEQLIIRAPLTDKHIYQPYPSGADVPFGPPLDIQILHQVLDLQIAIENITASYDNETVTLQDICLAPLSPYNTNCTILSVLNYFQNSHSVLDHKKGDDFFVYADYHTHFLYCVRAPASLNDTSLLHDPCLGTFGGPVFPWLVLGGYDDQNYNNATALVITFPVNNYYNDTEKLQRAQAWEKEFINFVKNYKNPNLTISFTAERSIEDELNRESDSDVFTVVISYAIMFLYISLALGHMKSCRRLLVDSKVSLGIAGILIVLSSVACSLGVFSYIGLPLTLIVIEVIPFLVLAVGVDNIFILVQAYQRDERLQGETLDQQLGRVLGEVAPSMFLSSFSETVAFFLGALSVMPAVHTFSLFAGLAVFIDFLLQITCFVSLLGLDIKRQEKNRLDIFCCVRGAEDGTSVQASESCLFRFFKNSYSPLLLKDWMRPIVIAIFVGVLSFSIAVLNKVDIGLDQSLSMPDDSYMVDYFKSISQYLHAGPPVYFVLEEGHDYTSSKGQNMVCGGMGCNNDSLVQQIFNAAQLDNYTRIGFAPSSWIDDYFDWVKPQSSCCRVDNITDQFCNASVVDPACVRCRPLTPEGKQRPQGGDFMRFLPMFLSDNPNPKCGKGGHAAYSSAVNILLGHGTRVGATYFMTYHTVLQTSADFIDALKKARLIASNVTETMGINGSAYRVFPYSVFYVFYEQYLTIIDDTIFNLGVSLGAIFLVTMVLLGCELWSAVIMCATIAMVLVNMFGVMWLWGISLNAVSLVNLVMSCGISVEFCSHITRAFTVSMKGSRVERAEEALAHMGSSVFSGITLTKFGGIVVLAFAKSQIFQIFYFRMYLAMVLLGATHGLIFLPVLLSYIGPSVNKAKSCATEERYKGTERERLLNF

Positions count from the first letter of the chain named.

B1: FLAG-tagged DHHC3 (over-expressed in HEK293 cells) (protein)
chain: MMLIPTHHFRNIERKPEYLQPEKCVPPPYPGPVGTMWFIRDGCGIACAIVTWFLVLYAEFVVLFVMLIPSRDYVYSIINGIVFNLLAFLALASHCRAMLTDPGAVPKGNATKEFIESLQLKPGQVVYKCPKCCSIKPDRAHHCSVCKRCIRKMDHHCPWVNNCVGENNQKYFVLFTMYIALISLHALIMVGFHFLHCFEEDWTKCSSFSPPTTVILLILLCFEGLLFLIFTSVMFGTQVHSICTDETGIEQLKKEERRWAKKTKWMNMKAVFGHPFSLGWASPFATPDQGKADPYQYVV
As for B1, the “incorporation of 3[H]-palmitate into immunoprecipitated Myc-CMTM6 (HEK293 over-expression)” value in data set [1] is “mutation of C90 (C→S) caused palmitoylation to be diminished by ˜50%”; in data set [2] it was “both mutations together (C90S+C115S) did not diminish palmitoylation (FIG. 23A, lane 6) more than C90S alone”; in data set [3], “a C115 mutation did not diminish incorporation of 3[H]-palmitate”; in data set [4], “CMTM6 incorporates 3[H]-palmitate when DHHC3 is present (FIG. 23A, lane 3), but not when DHHC3 is absent (FIG. 23A, lane 2)”.

B2: DHHC3 (protein acyltransferase; endogenous, in MDA-MB-231 cells) (protein)
chain: B1 chain
Turning to B2, the “palmitoylation of the substrate after DHHC3 ablation” value in data set [5] is reported as 4/4 putative DHHC3 substrates (ERGIC3, CMTM6, NPC1, transmembrane protein 192 (TMEM192)) lose substantial palmitoylation when DHHC3 is ablated; in data set [6], 4/4 putative DHHC3 substrates (ERGIC3, CMTM6, NPC1, transmembrane protein 192 (TMEM192)) lose substantial palmitoylation when DHHC3 is ablated.
